According to publication PMC7299284, “Studies in humanized mice and convalescent humans yield a SARS-CoV-2 antibody cocktail” (Science (New York, N.y.), 2020):

B1: REGN10933 (antibody, V domains shown)
VH: QVQLVESGGGLVKPGGSLRLSCAASGFTFSDYYMSWIRQAPGKGLEWVSYITYSGSTIYYADSVKGRFTISRDNAKSSLYLQMNSLRAEDTAVYYCARDRGTTMVPFDYWGQGTLVTVSS
VL: DIQMTQSPSSLSASVGDRVTITCQASQDITNYLNWYQQKPGKAPKLLIYAASNLETGVPSRFSGSGSGTDFTFTISGLQPEDIATYYCQQYDNLPLTFGGGTKVEIK
notes: source: CHO cells, transfected, recombinant fully human antibody; copies: 2 + 2
B2: REGN10987 (antibody, V domains shown)
VH: QVQLVESGGGVVQPGRSLRLSCAASGFTFSNYAMYWVRQAPGKGLEWVAVISYDGSNKYYADSVKGRFTISRDNSKNTLYLQMNSLRTEDTAVYYCASGSDYGDYLLVYWGQGTLVTVSS
VL: QSALTQPASVSGSPGQSITISCTGTSSDVGGYNYVSWYQQHPGKAPKLMIYDVSKRPSGVSNRFSGSKSGNTASLTISGLQSEDEADYYCNSLTSISTWVFGGGTKLTVL
notes: as for B1

How the values were obtained:
[1] = target: T1, RBD of SARS-CoV-2 spike (construct not told: ACE2 blocking, cross-competition and HDX-MS experiments) (SARS-CoV-2, UniProt P0DTC2); assay: HDX-MS; hydrogen-deuterium exchange mass spectrometry of spike protein RBD with each of nine antibodies; conditions: both partners purified
T1 construct: also called spike protein RBD

[2] = target: T1, RBD of SARS-CoV-2 spike (construct not …); assay: cross-competition binding assay; cross-competition of the nine most-potent neutralizing antibodies for binding to RBD (fig. S7)

| Binder | binding result [1] | binding result [2] |
| --- | --- | --- |
| B1 | binds |  |
| B2 |  | binds |
